Measured values taken from patent US5262522A, “Receptor for oncostatin M and leukemia inhibitory factor” (Immunex Corporation, priority 1991, dated 1993).

B1: gp130: truncated human gp130 polypeptide encoded by plasmid B10G (SEQ ID NO: 2), expressed on COS-7 cells (protein)
chain: ELLDPCGYISPESPVVQLHSNFTAVCVLKEKCMDYFHVNANYIVWKTNHFTIPKEQYTIINRTASSVTFTDIASLNIQLTCNILTFGQLEQNVYGITIISGLPPEKPKNLSCIVNEGKKMRCEWDGGRETHLETNFTLKSEWATHKFADCKAKRDTPTSCTVDYSTVYFVNIEVWVEAENALGKVTSDHINFDPVYKVKPNPPHNLSVINSEELSSILKLTWTNPSIKSVIILKYNIQYRTKDASTWSQIPPEDTASTRSSFTVQDLKPFTEYVFRIRCMKEDGKGYWSDWSEEASGITYEDRPSKAPSFWYKIDPSHTQGYRTVQLVWKTLPPFEANGKILDYEVTLTRWKSHLQNYTVNATKLTVNLTNDRYLATLTVRNLVGKSDAAVLTIPACDFQATHPVMDLKAFPKDNMLWVEWTTPRESVKKYILEWCVLSDKAPCITDWQQEDGTVHRTYLRGNLAESKCYLITVTPVYADGPGSPESIKAYLKQAPPSKGPTVRTKKVGKNEAVLEWDQLPVDVQNGFIRNYTIFYRTIIGNETAVNVDSSHTEYTLSSLTSDTLYMVRMAAYTDEGGKDGPEFTFTTPKFAQGEIEAIVVPVCLAFLLTTLLGVLFCFNKRDLIKKHIWPNVPDPSKSHIAQWSPHTPPRHNFNSKDQMYSDGNFTDVSVVEIEANDKKPFPEDL
B2: LIF-R: human leukemia inhibitory factor receptor fragment encoded by cDNA clone pHLIFR-65 (SEQ ID NO: 6), expressed on COS-7 cells (protein)
chain: QKKGAPHDLKCVTNNLQVWNCSWKAPSGTGRGTDYEVCIENRSRSCYQLEKTSIKIPALSHGDYEITINSLHDFGSSTSKFTLNEQNVSLIPDTPEILNLSADFSTSTLYLKWNDRGSVFPHRSNVIWEIKVLRKESMELVKLVTHNTTLNGKDTLHHWSWASDMPLECAIHFVEIRCYIDNLHFSGLEEWSDWSPVKNISWIPDSQTKVFPQDKVILVGSDITFCCVSQEKVLSALIGHTNCPLIHLDGENVAIKIRNISVSASSGTNVVFTTEDNIFGTVIFAGYPPDTPQQLNCETHDLKEIICSWNPGRVTALVGPRATSYTLVESFSGKYVRLKRAEAPTNESYQLLFQMLPNQEIYNFTLNAHNPLGRSQSTILVNITEKVYPHTPTSFKVKDINSTAVKLSWHLPGNFAKINFLCEIEIKKSNSVQEQRNVTIKGVENSSYLVALDKLNPYTLYTFRIRCSTETFWKWSKWSNKKQHLTTEASPSKGPDTWREWSSDGKNLIIYWKPLPINEANGKILSYNVSCSSDEETQSLSEIPDPQHKAEIRLDKNDYIISVVAKNSVGSSPPSKIASMEIPNDDLKIEQVVGMGKGILLTWHYDPNMTCDYVIKWCNSSRSEPCLMDWRKVPSNSTETVIESDEFRPGIRYNFFLYGCRNQGYQLLRSMIGYIEELAPIVAPNFTVEDTSADSILVKWEDIPVEELRGFLRGYLFYFGKGERDTSKMRVLESGRSDIKVKNITDISQKTLRIADLQGKTSYHLVLRAYTDGGVGPEKSMYVVTKENSVGLIIAILIPVAVAVIVGVVTSILCYRKREWIKETFYPDIPNPENCKALQFQKSVCEGSSALKTLEMNPCTPNNVEVLETRSAFPKIEDTEIISPVAERPEDRSDAEPENHVVVSYCPPIIEEEIPNPAADEAGGTAQVIYIDVQSMYQPQAKPEEKKKKSRSSRSKI

Assays:
[1] = tested on: Recombinant human LIF; experiment: LIF binding assay (phthalate oil separation, Scatchard) on transfected COS-7 cells
Method: Recombinant human LIF is expressed in yeast and purified to homogeneity essentially as described by Hopp, et al., Bio/Technology 6:1204 (1988). The purified protein is radiolabeled using a commercially available enzymobead radioiodination reagent (BioRad). In this procedure 10 μg LIF in 50 μl 0.2M sodium phosphate, pH 7.2, are combined with 50 μl enzymobead reagent, 2 mCi of sodium iodide in 20 μl of 0.05M sodium phosphate pH 7.0 and 10 μl of 2.5% β-D-glucose. After 10 minutes at 25° C., sodium azide (20 μl of 50 mM) and sodium metabisulfite (10 μl of 5 mg/ml) are added and incubation is continued for 5 min. at 25° C. The reaction mixture is fractionated by gel filtration on a 2 ml bed volume of Sephadex® G-25 (Sigma) equilibrated in Roswell Park Memorial Institute (RPMI) 1640 medium containing 2.5% (w/v) bovine serum albumin (BSA), 0.2% (w/v) sodium azide and 20 mM Hepes pH 7.4 (binding medium). […]
The cells were separated from unbound ^125 I-LIF by centrifugation for five minutes at 15,000×g in an Eppendorf microfuge. […] The radioactivity in both parts was then determined on a gamma counter. The determinations of both cell-bound and unbound radioactivity from the two 60 μl aliquots were averaged for subsequent calculations. […]

[2] = tested on: oncostatin M; experiment: Oncostatin M binding assay (phthalate oil separation, Scatchard) on transfected COS-7 cells; details: 125I-oncostatin M, compared with non-transfected COS-7 cells
Description: Oncostatin M may be purified from cells in which the protein is naturally found, or from cells transformed with an expression vector encoding oncostatin M. One source of oncostatin M is phorbol ester-treated U937 cells, as described by Zarling et al., PNAS U.S.A. 83:9739 (1986). Purification of recombinant oncostatin M is described by Linsley et al., J. Biol. Chem. 264:4282-4289 (1989), which is hereby incorporated by reference in its entirety.
Oncostatin M may be radiolabeled using any suitable conventional procedure, such as the radioiodination procedure employed to radiolabel LIF in Example 1. The radio-iodination of oncostatin M has also been described by Linsley et al., supra.
The resulting radiolabeled oncostatin M may be substituted for radiolabeled LIF (using the same concentrations and other reaction parameters) in the assay procedures described in Example 1 in order to detect proteins and cells that bind oncostatin M. An assay for binding of ^125 I-oncostatin M to cells is also described in Linsley et al., supra.
COS-7 cells transfected with vector(s) encoding gp130 or LIF-R were assayed for the ability to bind oncostatin M. In separate transfections, COS-7 cells were transfected with the following combinations of vectors. […]

Molecule	binding of LIF ([1]; 125I-LIF, COS-7 cells, compared with non-transfected COS-7 cells)	binding of oncostatin M [2]	binding of LIF after preincubation with oncostatin M ([1]; cells transfected with pHLIFR-65 and CAV, preincubated with non-radiolabeled oncostatin M (curve D))
B1	did not bind LIF in any measurable amount above the amount of binding to the non-transfected COS-7 cells		
B2		did not bind oncostatin M in any significant amount above that bound by the non-transfected COS-7 cells	essentially unchanged
